What was measured:
[1] = O-GlcNAc at T49
OGT [2] = target: OGT (UniProt O15294); assay: co-IP in H1299 cells; conditions: reference: YTHDF2 wild type; sites S39
OGT [3] = target: OGT (UniProt O15294); assay: co-IP of HA-YTHDF2 and Myc-OGT; conditions: reference: HA-YTHDF2 wild type; sites S39
[4] = anti-HA IP, anti-ubiquitin blot, 293T, MG132; conditions: glycan lost; control: HA-YTHDF2-WT
[5] = anti-ubiquitin blot, H1299; conditions: glycan lost; control: HA-YTHDF2-WT
[6] = anti-HA IP, anti-pS39 blot, 293T
[7] = CHX pulse-chase, protein remaining, H1299; conditions: glycan lost; control: HA-YTHDF2-WT
anti-pS39 blot, H1299 = conditions: glycan lost; control: HA-YTHDF2-WT
[8] = CHX pulse-chase, protein remaining, HEK-293T; conditions: glycan lost; control: HA-YTHDF2-WT

YTHDF2: OGA overexpression
other [1]: decreases

YTHDF2: Flag-OGA overexpression
other [1]: decreases, YTHDF2 ubiquitination, Ub/HA ratio ~0.5 vs 1.0 without OGA (read from plot, P < 0.05)

YTHDF2 (from UniProt Q9Y5A9) YTHDF2-S39A
binding against the reference (OGT [2]): stronger

YTHDF2: TMG plus glucose (OGA inhibition, raises O-GlcNAcylation)
other [1]: decreases

YTHDF2 (from UniProt Q9Y5A9) HA-YTHDF2-S39A
binding against the reference (OGT [3]): stronger

B1: YTHDF2: T49A (protein)
parent chain: MSASSLLEQRPKGQGNKVQNGSVHQKDGLNDDDFEPYLSPQARPNNAYTAMSDSYLPSYYSPSIGFSYSLGEAAWSTGGDTAMPYLTSYGQLSNGEPHFLPDAMFGQPGALGSTPFLGQHGFNFFPSGIDFSAWGNNSSQGQSTQSSGYSSNYAYAPSSLGGAMIDGQSAFANETLNKAPGMNTIDQGMAALKLGSTEVASNVPKVVGSAVGSGSITSNIVASNSLPPATIAPPKPASWADIASKPAKQQPKLKTKNGIAGSSLPPPPIKHNMDIGTWDNKGPVAKAPSQALVQNIGQPTQGSPQPVGQQANNSPPVAQASVGQQTQPLPPPPPQPAQLSVQQQAAQPTRWVAPRNRGSGFGHNGVDGNGVGQSQAGSGSTPSEPHPVLEKLRSINNYNPKDFDWNLKHGRVFIIKSYSEDDIHRSIKYNIWCSTEHGNKRLDAAYRSMNGKGPVYLLFSVNGSGHFCGVAEMKSAVDYNTCAGVWSQDKWKGRFDVRWIFVKDVPNSQLRHIRLENNENKPVTNSRDTQEVPLEKAKQVLKIIASYKHTTSIFDDFSHYEKRQEEEESVKKERQGRGK
other: ubiquitination [4]: decreases | other: ubiquitination [5]: decreases | other: Ser-39 phosphorylation ([6]; glycan lost, control: HA-YTHDF2-WT): increases | degradation_or_half_life [7]: increases | other: Ser-39 phosphorylation (anti-pS39 blot, H1299): increases | degradation_or_half_life [8]: increases

B2: YTHDF2: TMG plus glucose (protein)
parent chain: B1 parent chain
other: Ser-39 phosphorylation ([6]; glycan gained, control: untreated cells): decreases
